Test results taken from doi:10.1101/2023.02.19.529138 (bioRxiv, 2023).

Tests used:
Assay in all cases: single-molecule photobleaching step analysis
LeuT (Aquifex aeolicus) = target: LeuT (Aquifex aeolicus)
[1] = target: the molecule itself
[2] = target: T1, KcsA (Streptomyces lividans), P0A334; settings: remark: other sources report otherwise
T1 chain: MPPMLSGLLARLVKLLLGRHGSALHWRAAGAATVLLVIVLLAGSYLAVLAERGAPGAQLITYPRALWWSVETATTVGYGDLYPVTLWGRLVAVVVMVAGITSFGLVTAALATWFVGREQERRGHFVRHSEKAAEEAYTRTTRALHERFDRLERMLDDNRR

LeuT (natural protein) was tested, and the percent dimer (LeuT (Aquifex aeolicus)) was 75% and the percent monomer (LeuT (Aquifex aeolicus)) was 14%.

B1: SemiSWEET (natural protein)
chain: MALIERIGKALEPLMLVMGLISPLATMPQLYKLYVSHSEHALGLSLTTWLLYSFIALLWTIYGIYHKNPTIWVGNCLGFLMYVAMVVGIIAHTGGTY
With B1 the “stoichiometry N” value [1] was 2.

B2: KcsA, P0A334 1-160 (natural protein)
chain: T1 chain
Work on B2 yielded a stoichiometry N [2] of 4.
